From PMC5809500
Blank lines part the entries; values can stand above or below the substance they belong to.

How the values were obtained:
[1] = biological target: anti-NIP hIgG1-YTE (M252Y/S254T/T256E) (human | mouse); assay: MST; 20 nM NT-647-labelled hIgG1 variant constant, hFcRn titrated (60,000–0.3 nM); PBS, 0.01% Tween 20, pH 7.4; 25 °C; Monolith NT.115
[2] = biological target: anti-NIP hIgG1-KF (H433K/N434F) (human | mouse); assay: as above
[3] = biological target: anti-NIP hIgG1-LS (M428L/N434S) (human | mouse); assay: as above
[4] = biological target: WT anti-NIP hIgG1 (chimeric hIgG1 with mouse lambda light chain, hIgG1 constant HC and a VH specific for NIP) (human | mouse); assay: as above
[5] = biological target: anti-NIP hIgG1-YTE (M252Y/S254T/T256E) (human | mouse); assay: MST; 20 nM NT-647-labelled hIgG1 variant constant, hFcRn titrated (60,000–0.3 nM); 100 mM phosphate buffer, 150 mM NaCl, 0.01% Tween 20, pH 5.5; 25 °C; Monolith NT.115
[6] = biological target: anti-NIP hIgG1-KF (H433K/N434F) (human | mouse); assay: as above
[7] = biological target: anti-NIP hIgG1-YTE/KF (M252Y/S254T/T256E/H433K/N434F) (human | mouse); assay: as above
[8] = biological target: WT anti-NIP hIgG1 (chimeric hIgG1 with mouse lambda light chain, hIgG1 constant HC and a VH specific for NIP) (human | mouse); assay: as above
[9] = biological target: hFcRn coupled to the affinity column (analytical hFcRn affinity chromatography) (UniProt P55899); assay: analytical hFcRn affinity chromatography; hFcRn coupled to the column; 50 µl hIgG1 variant (1 mg/ml) injected, eluted by a linear pH gradient from pH 6.0 to 8.8 within 110 min (20 mM MES, 140 mM NaCl / 20 mM Tris/HCl, 140 NaCl)
[10] = biological target: Truncated monomeric His-tagged hFcRn (three extracellular domains of the hFcRn HC with human β2-microglobulin) (human) (UniProt P55899)

Kd [1]: > 20000 nM | Kd [2]: 3300 nM | Kd [3]: 7000 nM | Kd [4]: > 60000 nM | Kd [5]: 166 nM | Kd [6]: 53.4 nM | Kd [7]: 9.3 nM | Kd [8]: 964 nM
Substance: Truncated monomeric His-tagged hFcRn (three extracellular domains of the hFcRn HC with human β2-microglobulin) (from UniProt P55899 24-297; P61769 21-119) (receptor)

pH of the elution peak from the hFcRn column [9]: 7 pH
Substance: WT anti-NIP hIgG1 (chimeric hIgG1 with mouse lambda light chain, hIgG1 constant HC and a VH specific for NIP) (antibody)

reduction of recycling of WT anti-hexon hIgG1 (500 nM) by HMEC1-hFcRn cells (HERA, pH 7.4) with 2 µM YTE/KF; the pair blocked is WT hIgG1 and hFcRn [10]: 50%
Substance: anti-NIP hIgG1-YTE/KF (M252Y/S254T/T256E/H433K/N434F) (antibody)
